According to patent US20200216495A1 (ADRX, published 2020):
“And” between values parts separate entries of the source, which are not always exact repeats. Equal values may be shown once. Square brackets hold non-standard residues; d marks the D form. Ends that are not written are not given here. dCit = NC(=O)NCCC[C@@H](N)C(=O)O; dNle = CCCC[C@@H](N)C(=O)O

Target: Tau40 P301L protein (human)
Assay: cell-based or functional assay

Q: For [dL][dR][dI][dR][dI][dH][dY][dH] [lririhyh (PEPTIDE ID NO: 239)], which “IC50, Tau40 assay (ThT)” value is on record?
A: 1000 nM

Q: With [dK][dL][dK][dL][dR][dW][dW] [klklrww (PEPTIDE ID NO: 448)] as the binder, how does the “IC50, Tau40 assay (ThT)” value read?
A: 920 nM

Q: [dF][dL][dK][dI][dR][dI][dH][dY] [flkirihy (PEPTIDE ID NO: 247)] was tested. Which “IC50, Tau40 assay (ThT)” value did it give?
A: 1040 nM

Q: [dW][dR][dL][dR][dI][dH][dM] [wrlrihm (PEPTIDE ID NO: 453)] was tested. Which “IC50, Tau40 assay (ThT)” value did it give?
A: 580 nM

Q: Which “IC50, Tau40 assay (ThT)” value does the source give for [dR][dK][dI][dR][dI][dH][dY][dH] [rkirihyh (PEPTIDE ID NO: 227)] here?
A: 890 nM

Q: For [dW][dR][dL][dR][dV][dR][dW][dW] [wrlrvrww (PEPTIDE ID NO: 238)], which “IC50, Tau40 assay (ThT)” value is on record?
A: 1000 nM

Q: How did the “IC50, Tau40 assay (ThT)” value turn out when [dR][dL][dK][dI][dR][dI][dH][dY] [rlkirihy (PEPTIDE ID NO: 451)] was run?
A: 510 nM

Q: Which “IC50, Tau40 assay (ThT)” value does the source give for [dF][dK][dL][dK][dI][dK][dW] [fklkikw (PEPTIDE ID NO: 132)] here?
A: 1080 nM and 1100 nM

Q: Which “IC50, Tau40 assay (ThT)” value does the source give for [dL][dK][dL][dR][dI][dR][dH][dH] [lklrirhh (PEPTIDE ID NO: 415)] here?
A: 1010 nM

Q: Which “IC50, Tau40 assay (ThT)” value does the source give for [dW][dW][dL][dR][dI][dH][dW] [wwlrihw (PEPTIDE ID NO: 425)] here?
A: 940 nM

Q: How did the “IC50, Tau40 assay (ThT)” value turn out when [dF][dR][dL][dK][dV][dR][dW][dW] [frlkvrww (PEPTIDE ID NO: 231)] was run?
A: 910 nM

Q: For [dW][dR][dL][dK][dV][dA][dW] [wrlkvaw (PEPTIDE ID NO: 248)], which “IC50, Tau40 assay (ThT)” value is on record?
A: 1080 nM

Q: How did the “IC50, Tau40 assay (ThT)” value turn out when [dL][dK][dI][dW][dI][dY][dY][dH] [lkiwiyyh (PEPTIDE ID NO: 237)] was run?
A: 970 nM

Q: How did the “IC50, Tau40 assay (ThT)” value turn out when [dL][dK][dI][dR][dI][dR][dF][dH] [lkirirfh (PEPTIDE ID NO: 414)] was run?
A: 900 nM

Q: With [dF][dK][dL][dR][dL][dR][dH][dW] [fklrlrhw (PEPTIDE ID NO: 123)] as the binder, how does the “IC50, Tau40 assay (ThT)” value read?
A: 1070 nM

Q: How did the “IC50, Tau40 assay (ThT)” value turn out when [dW][dR][dL][dK][dE][dR][dW][dW] [wrlkerww (PEPTIDE ID NO: 241)] was run?
A: 1010 nM

Q: For [dL][dK][dI][dK][dI][dH][dY] [lkikihy (PEPTIDE ID NO: 233)], which “IC50, Tau40 assay (ThT)” value is on record?
A: 930 nM

Q: [dW][dR][dL][dR][dI][dM][dW] [wrlrimw (PEPTIDE ID NO: 452)] was tested. Which “IC50, Tau40 assay (ThT)” value did it give?
A: 540 nM

Q: With [dM][dR][dL][dR][dI][dH][dW] [mrlrihw (PEPTIDE ID NO: 242)] as the binder, how does the “IC50, Tau40 assay (ThT)” value read?
A: 1010 nM

Q: How did the “IC50, Tau40 assay (ThT)” value turn out when [dL][dK][dI][dK][dL][dR][dH][dY] [lkiklrhy (PEPTIDE ID NO: 144)] was run?
A: 1090 nM

Q: For [dL][dK][dI][dR][dI][dH][dL][dH] [lkirihlh (PEPTIDE ID NO: 240)], which “IC50, Tau40 assay (ThT)” value is on record?
A: 1000 nM

Q: For [dT][dL][dK][dI][dR][dI][dH][dY] [tlkirihy (PEPTIDE ID NO: 235)], which “IC50, Tau40 assay (ThT)” value is on record?
A: 940 nM

Q: How did the “IC50, Tau40 assay (ThT)” value turn out when [dW][dR][dL][dK][dV][dR][dW][dR] [wrlkvrwr (PEPTIDE ID NO: 230)] was run?
A: 910 nM

Q: How did the “IC50, Tau40 assay (ThT)” value turn out when [dL][dK][dI][dR][dI][dCit][dY] [lkirizy (PEPTIDE ID NO: 244)] was run?
A: 1030 nM

Q: Which “IC50, Tau40 assay (ThT)” value does the source give for [dE][dW][dR][dL][dK][dV][dR][dW] [ewrlkvrw (PEPTIDE ID NO: 229)] here?
A: 900 nM

Q: With [dW][dK][dL][dK][dL][dW][dW][dW] [wklklwww (PEPTIDE ID NO: 14)] as the binder, how does the “IC50, Tau40 assay (ThT)” value read?
A: 940 nM

Q: Which “IC50, Tau40 assay (ThT)” value does the source give for [dF][dK][dL][dK][dL][dR][dW] [fklklrw (PEPTIDE ID NO: 413)] here?
A: 1050 nM

Q: For [dF][dK][dI][dR][dI][dH][dY][dF] [fkirihyf (PEPTIDE ID NO: 232)], which “IC50, Tau40 assay (ThT)” value is on record?
A: 910 nM

Q: Which “IC50, Tau40 assay (ThT)” value does the source give for [dL][dQ][dF][dD][dL][dQ][dY][dF] [lqfdlqyf (PEPTIDE ID NO: 142)] here?
A: 930 nM and 980 nM

Q: How did the “IC50, Tau40 assay (ThT)” value turn out when [dL][dK][dI][dR][dI][dH][dY][dL] [lkirihyl (PEPTIDE ID NO: 193)] was run?
A: 650 nM

Q: Which “IC50, Tau40 assay (ThT)” value does the source give for [dL][dK][dL][dH][dL][dH][dF][dH] [lklhlhfh (PEPTIDE ID NO: 434)] here?
A: 1010 nM

Q: For [dW][dW][dR][dL][dK][dV][dR][dW] [wwrlkvrw (PEPTIDE ID NO: 234)], which “IC50, Tau40 assay (ThT)” value is on record?
A: 930 nM

Q: With G[dL][dK][dI][dR][dI][dH][dY] [glkirihy (PEPTIDE ID NO: 236)] as the binder, how does the “IC50, Tau40 assay (ThT)” value read?
A: 960 nM

Q: For [dK][dL][dK][dI][dR][dI][dH][dY] [klkirihy (PEPTIDE ID NO: 243)], which “IC50, Tau40 assay (ThT)” value is on record?
A: 1010 nM

Q: Which “IC50, Tau40 assay (ThT)” value does the source give for [dW][dR][dM][dR][dI][dH][dW] [wrmrihw (PEPTIDE ID NO: 246)] here?
A: 1040 nM

Q: For [dL][dR][dI][dR][dL][dH][dY][dH] [lrirlhyh (PEPTIDE ID NO: 420)], which “IC50, Tau40 assay (ThT)” value is on record?
A: 970 nM

Q: How did the “IC50, Tau40 assay (ThT)” value turn out when [dL][dK][dI][dR][dI][dH][dY] [lkirihy (PEPTIDE ID NO: 245)] was run?
A: 1040 nM

Q: How did the “IC50, Tau40 assay (ThT)” value turn out when [dL][dR][dI][dK][dI][dR][dF][dH] [lrikirfh (PEPTIDE ID NO: 421)] was run?
A: 970 nM

Target: Ac-VQIINK-NH2 (SEQ ID NO: 23) (N-terminal acetyl (Ac); C-terminal amide (NH2))
Assay: cell-based or functional assay

Q: Which “VQIINK Inhibition IC50” value does the source give for [dW][dL][dR][dV][dQ][dV][dK][dW] [wlrvqvkw] here?
A: 1.08 µm

Q: How did the “VQIINK Inhibition IC50” value turn out when [dF][dR][dI][dR][dI][dH][dH][dW] [fririhhw] was run?
A: 0.82 µm

Q: [dF][dR][dL][dK][dV][dR][dW][dW] [frlkvrww] was tested. Which “VQIINK Inhibition IC50” value did it give?
A: 0.76 µm

Q: With [dH][dY][dH][dI][dR][dI][dK][dL] [hyhirikl] as the binder, how does the “VQIINK Inhibition IC50” value read?
A: 0.96 µm

Q: [dF][dR][dL][dK][dI][dR][dW] [frlkirw] was tested. Which “VQIINK Inhibition IC50” value did it give?
A: 0.69 µm

Q: For [dL][dR][dL][dK][dV][dR][dW][dL] [lrlkvrwl], which “VQIINK Inhibition IC50” value is on record?
A: 0.93 µm

Q: How did the “VQIINK Inhibition IC50” value turn out when [dF][dE][dL][dK][dL][dR][dW][dH] [felklrwh] was run?
A: 1.03 µm

Q: [dL][dK][dI][dNle][dI][dH][dY] [lkiuihy] was tested. Which “VQIINK Inhibition IC50” value did it give?
A: 0.26 µm

Q: With [dL][dE][dI][dR][dI][dH][dY] [leirihy] as the binder, how does the “VQIINK Inhibition IC50” value read?
A: 0.77 µm

Q: [dL][dR][dL][dK][dV][dR][dW][dW] [lrlkvrww] was tested. Which “VQIINK Inhibition IC50” value did it give?
A: 0.67 µm

Q: [dL][dK][dI][dY][dI][dH][dY] [lkiyihy] was tested. Which “VQIINK Inhibition IC50” value did it give?
A: 0.17 µm

Q: With [dW][dK][dV][dQ][dV][dR][dL][dW] [wkvqvrlw] as the binder, how does the “VQIINK Inhibition IC50” value read?
A: 0.94 µm

Q: With [dW][dE][dL][dK][dV][dR][dW] [welkvrw] as the binder, how does the “VQIINK Inhibition IC50” value read?
A: 0.26 µm

Q: How did the “VQIINK Inhibition IC50” value turn out when [dL][dK][dI][dR][dI][dE][dY] [lkiriey] was run?
A: 1.05 µm

Q: With [dF][dH][dI][dR][dI][dR][dH][dW] [fhirirhw] as the binder, how does the “VQIINK Inhibition IC50” value read?
A: 1.1 µm

Q: With [dF][dK][dL][dK][dL][dW][dW][dF] [fklklwwf] as the binder, how does the “VQIINK Inhibition IC50” value read?
A: 1.15 µm

Q: [dW][dR][dL][dR][dV][dR][dW][dW] [wrlrvrww] was tested. Which “VQIINK Inhibition IC50” value did it give?
A: 0.79 µm

Q: Which “VQIINK Inhibition IC50” value does the source give for [dW][dK][dV][dK][dI][dQ][dY][dH] [wkvkiqyh] here?
A: 0.75 µm

Q: [dW][dN][dL][dK][dV][dR][dW] [wnlkvrw] was tested. Which “VQIINK Inhibition IC50” value did it give?
A: 0.41 µm

Q: Which “VQIINK Inhibition IC50” value does the source give for [dW][dQ][dL][dK][dV][dR][dW] [wqlkvrw] here?
A: 0.97 µm

Q: [dL][dK][dI][dE][dI][dH][dY] [lkieihy] was tested. Which “VQIINK Inhibition IC50” value did it give?
A: 0.65 µm

Q: For [dL][dK][dI][dR][dI][dCit][dY] [lkirizy], which “VQIINK Inhibition IC50” value is on record?
A: 0.76 µm
